The target in test [1] is T1, heterotrimeric IL-2R (CD25, CD122 and CD132) on transiently transfected 293F cells (UniProt P01589 22-272; P14784 27-551; P31785 23-369, limits assumed).
T1 construct: whole, on cells
T1 sequence (looked up) 1: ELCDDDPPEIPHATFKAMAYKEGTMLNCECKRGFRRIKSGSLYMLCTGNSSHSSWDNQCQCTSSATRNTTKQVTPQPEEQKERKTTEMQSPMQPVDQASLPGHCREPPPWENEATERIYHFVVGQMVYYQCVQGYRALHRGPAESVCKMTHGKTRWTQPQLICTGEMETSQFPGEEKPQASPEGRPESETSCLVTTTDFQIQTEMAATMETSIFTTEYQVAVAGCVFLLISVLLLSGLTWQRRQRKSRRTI
T1 sequence (looked up) 2: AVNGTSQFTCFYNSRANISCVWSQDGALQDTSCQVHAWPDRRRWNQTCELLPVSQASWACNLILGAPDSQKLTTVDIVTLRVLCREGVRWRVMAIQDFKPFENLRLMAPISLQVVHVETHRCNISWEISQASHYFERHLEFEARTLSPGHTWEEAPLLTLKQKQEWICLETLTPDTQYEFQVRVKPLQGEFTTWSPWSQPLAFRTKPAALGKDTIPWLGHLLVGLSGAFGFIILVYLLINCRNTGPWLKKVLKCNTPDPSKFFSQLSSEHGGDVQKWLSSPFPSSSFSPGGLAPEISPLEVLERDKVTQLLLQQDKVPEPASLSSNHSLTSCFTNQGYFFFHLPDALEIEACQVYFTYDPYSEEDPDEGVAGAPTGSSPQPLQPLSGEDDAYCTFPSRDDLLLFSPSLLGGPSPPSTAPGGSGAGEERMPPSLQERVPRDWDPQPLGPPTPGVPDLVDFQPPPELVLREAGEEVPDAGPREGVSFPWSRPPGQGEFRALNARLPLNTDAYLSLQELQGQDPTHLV
T1 sequence (looked up) 3: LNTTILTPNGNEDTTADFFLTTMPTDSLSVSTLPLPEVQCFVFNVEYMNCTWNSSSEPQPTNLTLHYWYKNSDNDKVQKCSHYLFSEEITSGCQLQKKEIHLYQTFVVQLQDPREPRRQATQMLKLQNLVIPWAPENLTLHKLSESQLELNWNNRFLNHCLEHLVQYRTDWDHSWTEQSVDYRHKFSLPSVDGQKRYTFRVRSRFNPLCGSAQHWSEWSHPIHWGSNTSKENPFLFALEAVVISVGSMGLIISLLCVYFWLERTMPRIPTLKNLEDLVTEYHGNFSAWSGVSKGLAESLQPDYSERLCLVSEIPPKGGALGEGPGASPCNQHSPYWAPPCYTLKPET
In words: flow cytometry on transiently transfected 293F cells.

For test [2], the target named is T2, CD122/CD132 (heterodimeric IL-2R) on transiently transfected 293F cells (UniProt P14784 27-551; P31785 23-369, limits assumed).
T2 construct: whole, on cells; also called CD122 and CD132
T2 sequence (looked up) 1: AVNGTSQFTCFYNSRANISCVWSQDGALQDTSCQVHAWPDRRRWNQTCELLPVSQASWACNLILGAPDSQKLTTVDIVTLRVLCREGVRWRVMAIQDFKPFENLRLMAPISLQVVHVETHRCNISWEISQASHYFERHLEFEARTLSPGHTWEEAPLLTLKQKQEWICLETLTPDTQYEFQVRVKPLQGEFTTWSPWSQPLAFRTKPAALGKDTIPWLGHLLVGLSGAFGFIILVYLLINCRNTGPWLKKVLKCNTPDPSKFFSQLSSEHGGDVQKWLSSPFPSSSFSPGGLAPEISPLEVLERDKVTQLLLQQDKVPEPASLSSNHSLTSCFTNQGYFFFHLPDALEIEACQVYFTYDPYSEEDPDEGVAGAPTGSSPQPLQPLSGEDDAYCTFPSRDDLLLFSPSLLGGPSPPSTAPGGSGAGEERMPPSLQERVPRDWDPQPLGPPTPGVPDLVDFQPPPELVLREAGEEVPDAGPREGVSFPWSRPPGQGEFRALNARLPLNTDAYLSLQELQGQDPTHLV
T2 sequence (looked up) 2: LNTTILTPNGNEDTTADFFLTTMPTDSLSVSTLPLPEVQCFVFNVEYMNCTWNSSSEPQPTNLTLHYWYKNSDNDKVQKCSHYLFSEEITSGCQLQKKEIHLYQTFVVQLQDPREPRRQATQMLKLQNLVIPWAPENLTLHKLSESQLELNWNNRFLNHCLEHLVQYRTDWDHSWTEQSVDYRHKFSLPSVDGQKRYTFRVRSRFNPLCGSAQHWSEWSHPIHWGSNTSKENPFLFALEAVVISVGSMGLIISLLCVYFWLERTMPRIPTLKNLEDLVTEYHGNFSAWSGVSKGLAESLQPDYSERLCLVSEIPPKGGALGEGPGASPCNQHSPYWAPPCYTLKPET
Described as above.

B1: fusion protein comprising triple mutant IL-2 P65R-H16A-D84S (IL-2-RAS) fused to the N-terminus of the knob half of a heterodimeric Fc, paired with a hole Fc (Fc fusion)
chain 1: APTSSSTKKTQLQLEALLLDLQMILNGINNYKNPKLTRMLTFKFYMPKKATELKHLQCLEEELKRLEEVLNLAQSKNFHLRPRSLISNINVIVLELKGSETTFMCEYADETATIVEFLNRWITFCQSIISTLTPGGGGDKTHTCPPCPAPGGPSVFLFPPKPKDTLMISRTPEVTCVVVDVSHEDPEVKFNWYVDGVEVHNAKTKPREEQYNSTYRVVSVLTVLHQDWLNGKEYKCKVSNKALPAPIEKTISKAKGQPREPQVYTLPPCRDELTKNQVSLWCLVKGFYPSDIAVEWESNGQPENNYKTTPPVLDSDGSFFLYSKLTVDKSRWQQGNVFSCSVMHEALHNHYTQKSLSLSPGK
chain 2: KPGGGGDKTHTCPPCPAPGGPSVFLFPPKPKDTLMRSRTPEVTCVVVDVSHEDPEVKFNWYVDGVEVHNAKTKPREEQYNSTYRVVSVLTVLHQDWLNGKEYKCKVSNKALPAPIEKTISKAKGQPREPQVCTLPPSRDELTKNQVSLSCAVKGFYPSDIAVEWESNGQPENNYKTTPPVLDSDGSFFLVSKLTVDKSRWQQGNVFSCSVMHEALHNHYTQKSLSLSPGK
notes: also called IL-2-RAS-xELL knob Fc
On to B1, for which the binding result in test [1] and in test [2] was “binds” each time.

For the origin of these results see patent US20230235005A1 (INHIBRX, published 2023).
